According to the supplement of paper PMC10266784:

B1: library; numbered along this chain (parent)
chain: MAAAAAAAAEQQSSNGPVKKSMREKAVERRSVNKEHNSNFKAGYIPIDEDRLHKTGLRGRKGNLAICVIILLFILAVINLIITLVIWAVIRIGPNGCDSMEFHESGLLRFKQVSDMGVIHPLYKSTVGGRRNENLVITGNNQPIVFQQGTTKLSVENNKTSITSDIGMQFFDPRTQNILFSTDYETHEFHLPSGVKSLNVQKASTERITSNATSDLNIKVDGRAIVRGNEGVFIMGKTIEFHMGGNMELKAENSIILNGSVMVSTTRLPSSSSGDQLGSGDWVRYKLCMCADGTLFKVQVTSQNMGCQISDNPCGNTH

Variants of: B1
Assay: SGCB cell-surface expression functional score (HA stain, bin4 vs bin1, normalised to synonymous) (log10 ratio); higher = more cell-surface SGCB (functional)
In short: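 Sorting and sequencing yield the functional score, defined as the log ratio of a variant's highest-bin frequency to its lowest-bin frequency, with the median taken over codons and replicate transductions. The libraries, codon-saturation sets of HA-tagged, YFP-fused human beta-sarcoglycan, went into HEK293 cells stably carrying alpha-, gamma- and delta-sarcoglycan by duplicate lentiviral transduction at MOI <0.1. Cells were stained on ice with Alexa Fluor 647 anti-HA, fixed and split into four 5% intensity bins, and synonymous variants were scaled per section to mean 0, SD 0.5.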

SGCB cell-surface expression functional score (log10) of substitutions, site by site:
T175: A 0.26, S -0.04, R 0.24, M -0.5, Q 1.26, F 0.17, Y 0.07, G 0.14, E -0.42, V -0.16, L 0.08, I -0.13, W 1.12, K -0.54, P -1.3, N -0.16, C -0.43, H 0.32, D -0.47
Q169: W -1.48, Y -0.36
R174: A 0.02, W -0.75, M 0.09, P -0.77, D -0.81, L 0.05, H -0.58, V -0.32, F -0.97, S -0.45, E -0.22, Y -0.17, K 0.08, G -0.63, T 0.3, N -1.48, C -0.43, I -0.15, Q -1.07
F170: Y -0.86, K -0.63, L 0.11, A -0.27, C -0.28, Q -0.12, D -1.87, E -2.21, I 0.36, N -1.47, P -1.16, V 0.47, R -1.14, T -0.01, G -0.91, S -0.47
L179: A 0.06
I178: N -0.4, V 0.68, P 0.29, G -0.44, R -0.26, Y -1.19, L 0.3, Q -0.75, M -0.88, K -0.57, E -2.31, F -0.92, H -0.39, T -0.41, C -0.6, S -1.13, D -0.82, W -1.15, A -1.66
D172: V 0.26, R -0.58, W -0.88, A 0.03, C 0.95, H 0.44, N -0.02
